Data taken from the DeepSol protein solubility set.

Assay: soluble on expression in E. coli; label from the status in PepcDB or PDB records

Row | Sequence | soluble on expression in E. coli
1 | MKLIILDRDGVVNQDSDAFVKSPDEWIALPGSLQAIARLTQADWTVVLATNQSGLARGLFDTATLNAIHDKMHRALAQMGGVVDAIFMCPHGPDDGCACRKPLPGMYRDIARRYDVDLAGVPAVGDSLRDLQAAAQAGCAPWLVQTGNGRKTLAQGGLPEGTRVCEDLAAVAEQLLQEA | soluble
2 | MKLIILEHYSQASEWAAKYIRNRIIQFNPGPEKYFTLGLPTGSTPLGCYKKLIEYYKNGDLSFKYVKTFNMDEYVGLPRDHPESYHSFMWNNFFKHIDIHPENTHILDGNAVDLQAECDAFEEKIKAAGGIELFVGGIGPDGHIAFNEPGSSLVSRTRVKTLAMDTILANARFFDGELTKVPTMALTVGVGTVMDAREVMILITGAHKAFALYKAIEEGVNHMWTVSAFQQHPRTVFVCDEDATLELKVKTVKYFKGLMLVHNKLVDPLYSIKEKETEKSQSSKKPYSD | soluble
3 | MKLKRYEVLADEITASIQAGTRRAGDRLPSVRQTSASRGLSATTVFKAYYLLEARGLIRARDRSGYYVVGKPKALPPELEAGAPAESRRVDVDVSDRVLHVLQLTMRRDVVPFGSAFPHPSLFPHARLARAMASSVAALDPWSSVDDLSAGNTRLRRAIALRYLADGVQVRTEDIVITNGALEALNLCLGAVTRPGDSVLIESPTFYSALQSLERLGLRAIEVPAHPREGIELDALARAIDTHRPAACWLMTNFQNPLGSLMPEDKKRALVELLAARDVPLIEDDVYSELYFGAQRPLPAKAYDESGIVMSCSSFSKSLAPGWRIGWVLGGRYADRILRGKLALSLSTSAPSQAALATYLEHGGYDRHLRQLRQTLEQQRNQVMEAIARHFPPGTRTTHPDGGYFLWVALPPQVDALAVHRAALSLGVSTAPGPIFSVQDRFRHCLRLNYGHPFDARAQDGLATLGKLIARQC | not soluble
4 | MKLLHAIQTHAETYPQTDAFRSQGQSLTYQELWEQSDRAAAAIQKRISGEKKSPILVYGHMEPHMIVSFLGSVKAGHPYIPVDLSIPSERIAKIIESSGAELLIHAAGLSIDAVGQQIQTVSAEELLENEGGSVSQDQWVKEHETFYIIYTSGSTGNPKGVQISAANLQSFTDWICADFPVSGGKIFLNQAPFSFDLSVMDLYPCLQSGGTLHCVTKDAVNKPKVLFEELKKSGLNVWTSTPSFVQMCLMDPGFSQDLLPHADTFMFCGEVLPVSVAKALLERFPKAKIFNTYGPTEATVAVTSVEITNDVISRSESLPVGFAKPDMNIFIMDEEGQPLPEGEKGEIVIAGPSVSRGYLGEPELTEKAFFSHEGQWAYRTGDAGFIQDGQIFCQGRLDFQIKLHGYRMELEEIEFHVRQSQYVRSAVVIPYQPNGTVEYLIAAIVPEEHEFEKEFQLTSAIKKELAASLPAYMIPRKFIYQDHIQMTANGKIDRKRIGEEVLVRSHHHHHH | soluble
5 | MKLLLIGYGNVGKAFRRLLHEKKDNYPILQGVEIAGIITRQGLMVGDKENFSPDKQLTVLEAIDYINPDVIVDMSVPNYKDGEPSVSAYIKALSRKIHVITVNKAPLALKFREIFEVAEKTGAKIGFQGTVMSGTPSINLFRIQPVAEVSRIRGILNGTTNYILTRIYEGLSFNEALKEAKEKGYAEEDPTLDLNGFDAAAKLTILSNFIMNRSLKLGDFKFKGITEITNEEIRRAKSEGKKIKLIAYADNYVVQVSPQIIGPQDPLYYIDGVENALEIQNEIQRIIIRGPGAGPINAAYGALSDLVLLLEGCL | not soluble
6 | MKLLTLNCHSWQEENQIEKIQYLAKVIQEEEYDVIALQEVSQSIQAENVCGNKKKDNFGLLLLEELKALHVKDYNITWDFSHIGYDVYEEGLAIITKHNIIKEDTFFISENEDTTYWKTRKIVSTTIAYNGKDITFYSCHLGWWNDEEESFKGQVDRLMERVDSNKLAFLMGDFNNNARLKGEGYEYMMQKGLYDTYELAIEKDEGTTVQGEIAGWDENKHNLRIDLILCNQSKKVHSSKVIFNGTNRNVISDHFGVEVQLDI | not soluble
7 | MKLPVREFDAVVIGAGGAGMRAALQISQSGQTCALLSKVFPTRSHTVSAQGGITVALGNTHEDNWEWHMYDTVKGSDYIGDQDAIEYMCKTGPEAILELEHMGLPFSRLDDGRIYQRPFGGQSKNFGGEQAARTAAAADRTGHALLHTLYQQNLKNHTTIFSEWYALDLVKNQDGAVVGCTALCIETGEVVYFKARATVLATGGAGRIYQSTTNAHINTGDGVGMAIRAGVPVQDMEMWQFHPTGIAGAGVLVTEGCRGEGGYLLNKHGERFMERYAPNAKDLAGRDVVARSIMIEIREGRGCDGPWGPHAKLKLDHLGKEVLESRLPGILELSRTFAHVDPVKEPIPVIPTCHYMMGGIPTKVTGQALTVNEKGEDVVVPGLFAVGEIACVSVHGANRLGGNSLLDLVVFGRAAGLHLQESIAEQGALRDASESDVEASLDRLNRWNNNRNGEDPVAIRKALQECMQHNFSVFREGDAMAKGLEQLKVIRERLKNARLDDTSSEFNTQRVECLELDNLMETAYATAVSANFRTESRGAHSRFDFPDRDDENWLCHSLYLPESESMTRRSVNMEPKLRPAFPPKIRTY | soluble
8 | MKLPVVESFFSLQGEGKRIGKPSLFLRLGGCNLSCKGFNCKTLLNDEILTGCDSLYAVHPKFKTSWDYYNEPKPLIERLEDLAPNYKDFDFILTGGEPSLYFNNPILISVLEHFYRQKIPLCVESNGSIFFEFSPILKELHFTLSVKLSFSLEEESKRIHLKALQNILNNAKSAHFKFVLESQNAAQSIIEIQSLLKQLSLKNNEIFLMPLGTNNNELDKNLKTLAPLAIKHGFRLSDRLHIRLWDNQKGF | not soluble
9 | MKLPYSITVTYDHRTSPHIPFSSHIGKQNSFFSFLSRKKSMYHHITFCSVPATDGRARGQRPTGHFHLFFVVNRLLPRTRSTTKPSCSFAQPVTPRTREGAGVRGHRRRRRGSLSLIPWKTSNDKQKDDKRSLFCYMREIIAVGNFSKYMLLEHHHHHH | not soluble
10 | MKLQSYLMGEWREGQGEGVPVRDASTGEVLARVTAEGLPVKEAVAWGREVGGKALLALGFQERGRRLRALAQYLSERKEALYRLYATTGGTRRDAWYDVDGGIGVLYAYSSLARNLPEGNLLPEDDFLPLSKDLSFQGRHVLAPKGGITVQINAFNFPVWGLLEKFAPAFLAGVPTLAKPATPTAHVAEALVRTMLESGLLPEGSLQLLVGSVGDLFDALDHRDSVFFTGSKATADRLRRHPAFLERGALFNAEADSLNPAILGEKATEEELSRLAQEIAQELVIKTGQRCTAIRRVFAPRERLKALLEATRKRLEALRLGDPREEGVDLGPLASLEQKAEVEKAVAALLEAGARVYWRHPGREDGAFFPPTLLLAEDPWPGALHQVEPFGPVATFFPYGSREEAARLAALGGGSLVATLATSDPEEARFYLLALAPYVGRLHLLNARTAASSTGHGSPLPRLLHGGPGRAGGGEELGGLLSVRRHLGRVALQADPWLLSALTGEYAKGAEKPAEVHPFRKAYEDLEVGETLTTHRRTVTEADIALFSALSWDHFYAHTDEIAARESLFGKRVAHGYFVLSAAAGLFVDPAPGPVLANYGLEGLRFLEPVGAGDTLQVRLTVKRKRPRDEKTGVVEWAAEVVNQEGKPVATYTVLTLVARKGALAKGS | soluble
11 | MKLSRRSFMKANAVAAAAAAAGLSVPGVARAVVGQQEAIKWDKAPCRFCGTGCGVLVGTQQGRVVACQGDPDAPVNRGLNCIKGYFLPKIMYGKDRLTQPLLRMKNGKYDKEGEFTPITWDQAFDVMEEKFKTALKEKGPESIGMFGSGQWTIWEGYAASKLFKAGFRSNNIDPNARHCMASAVVGFMRTFGMDEPMGCYDDIEQADAFVLWGANMAEMHPILWSRITNRRLSNQNVTVAVLSTYQHRSFELADNGIIFTPQSDLVILNYIANYIIQNNAINQDFFSKHVNLRKGATDIGYGLRPTHPLEKAAKNPGSDASEPMSFEDYKAFVAEYTLEKTAEMTGVPKDQLEQLAQLYADPNKKVISYWTMGFNQHTRGVWANNLVYNLHLLTGKISQPGCGPFSLTGQPSACGTAREVGTFAHRLPADMVVTNEKHRDICEKKWNIPSGTIPAKIGLHAVAQDRALKDGKLNVYWTMCTNNMQAGPNINEERMPGWRDPRNFIIVSDPYPTVSALAADLILPTAMWVEKEGAYGNAERRTQFWRQQVQAPGEAKSDLWQLVQFSRRFKTEEVWPEDLLAKKPELRGKTLYEVLYATPEVSKFPVSELAEDQLNDESRELGFYLQKGLFEEYAWFGRGHGHDLAPFDDYHKARGLRWPVVNGKETQWRYSEGNDPYVKAGEGYKFYGKPDGKAVIFALPFEPAAEAPDEEYDLWLSTGRVLEHWHTGSMTRRVPELHRAFPEAVLFIHPLDAKARDLRRGDKVKVVSRRGEVISIVETRGRNRPPQGLVYMPFFDAAQLVNKLTLDATDPLSKETDFKKCAVKLEKV | not soluble
12 | MKLVPDAFHPGYWGPLLSAHMPRTAYLPVSESFISALQRDSLNEADAERLQSDFSELIQGLSHAMDYLRTDHSTSEGFCPKLNGKLPYDAAWILGRHAPCCYTWNEAMMVLRASSRIHEPTRTSWQGSFCLVVQRWEQIHPANEFRCFISSCRVIAICQRHPDTPYPFLARERDRLVNAMVSFYETHVRPLHPAYAECILDCYLDDSQSVRTLGIDAWSDDALLLFEVSEMEALRAQAAAAFPGQHSDPDGHRQSEAPGEDATGATVSFRSVAQGFAAVPWGWSEKLPLELGDDFLRARIQRNASD | not soluble
13 | MKMKKKKRKMFDVFEHVLNQIVGNGVLLLRRIVIDRSKQHKHFHLIMTYKCIFVVAQHTLVDRLESDNNGEQKFQKLCFI | not soluble
14 | MKMKTDDTFNHAHADRLLLPNASLLGEVENMLADGRSVMLKATGNSMLPFIVGGRDSVLVRRPSGIQALQVWQIALAHLPDSRYVLHRIVRIHGAEIVLMGDGNLKETESCRFPDITGVVTRIIRNGRYVDCDAGGERCKAKIWGRLLPIRRYLLYIYRRVWI | not soluble
15 | MKMNNTKEYSIRTPSLGNLPPGTTGTCCPPPLVFPLLPLSPPPSPPPSPSSPPRLPPPFPALFPPEPPLPPRFELPPPLFPPPPLPRLPPPLLPPPEEPPREPPPPPPPPEEPPPPASCLRTKSPENGIVSTVK | not soluble
16 | MKMWQRKTDSSGVIQMDLKKLEGIFEGMLFASGDKVSIEKLSSITGIDKKTVKLVINNMIVKYNNDPSRGITIREINNGYQLCSKPEYYDYIKQLFEPKQRSGLSQAALETLAIIAYNRPITKAKIEQIRGVNSDSAITKLLEKNLIREAGRLDAPGKPVLYETTDEFFRSFGFKSDADLPIFELNDIHETVEINQNSEQEKADTELEKQEKA | not soluble
17 | MKNDSFLDKVIGSLLSQNFQVDSNAYTYGLVKGKNDSFSGKVIDGIDVAKSILAIAQIFGSPIDSDCADFKTIFNGEGFKKDLKALYSMTDAVLYKFILGQPLIVGVVKADSLTHNEIYDITDKFDKAILGFRKYTARMKWTKCR | not soluble
18 | MKNFVRTTLLAATLAGVSFGAFATAVPNPPLPAQDPIVQHLKLTNDQITRIKKLHQQLETDVSQISMKGIKDGALIEVIKSGKWDDAAVKQQLAAFSNIEQQARYYRVKYYFDLSKVLTPEQRQQVQQDLAQALE | not soluble
19 | MKNNADYIEMKVPAQPEYVGIIRLTLSGVASRMGYTYDEIEDLKIAVSEACTNAVQHAYKEDKNGEVSIRFGVFEDRLEVIVADEGDSFDFDQKQQDLGPYTPSHTVDQLSEGGLGLYLMETLMDEVRVQNHSGVTVAMTKYLNGERVDHDTTIKNYETN | soluble
20 | MKNVEEQAEREIALSDEMVLQFLQQNPDFFIRNARPVEQMRVPHPVRGTVSLVEWQLARQRNHITQLEEEITLLMEQAGANEVLFNRLLGLQTELASAESLTDMLDRLQRWARQLGLAGAAVRLFSDKWRIGAPSDFTHLGLNRSSFEPLRIQRFGQHNHYLGSLNGPELLLLLPQARQVGSVALSLMGNHHDLGVLIFSSRDSHHYQNGMGTVLLQQMAMMLPAMLARWVERVLEHHHHHH | not soluble
